The numbers were not newly measured in article PMC10162908, which cites them from elsewhere.

A word on the pKd: it is the Kd on a negative log10 scale, so that one unit is a factor of ten.

pKd: −log10 of the molar value.

In the data set the target is EED (Homo sapiens) (UniProt O75530).
UniProt O75530, sequence (O75530 2-441): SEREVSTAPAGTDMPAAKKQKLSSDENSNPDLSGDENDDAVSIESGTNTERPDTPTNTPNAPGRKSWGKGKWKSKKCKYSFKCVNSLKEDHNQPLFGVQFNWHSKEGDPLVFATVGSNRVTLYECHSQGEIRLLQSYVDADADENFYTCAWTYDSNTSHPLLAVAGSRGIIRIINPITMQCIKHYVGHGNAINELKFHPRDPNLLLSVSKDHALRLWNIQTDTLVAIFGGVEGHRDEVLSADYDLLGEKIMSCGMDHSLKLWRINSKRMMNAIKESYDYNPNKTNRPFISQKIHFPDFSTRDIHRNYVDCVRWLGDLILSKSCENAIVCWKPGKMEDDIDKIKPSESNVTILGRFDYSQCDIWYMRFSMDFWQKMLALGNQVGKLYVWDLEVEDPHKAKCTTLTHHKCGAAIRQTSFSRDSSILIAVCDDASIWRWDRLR

For “Jarid2 K116me3 peptide 114-118 (from UniProt Q92833)”, the pKd is 5.05.
